Data as given in the supplement of paper PMC9112550, “Optimization of the antimicrobial peptide Bac7 by deep mutational scanning” (BMC Biology, 2022).

Each sequence was assayed on Escherichia coli TOP10 (assay: shrunken log2 fold change of peptide-encoding DNA abundance (4.5 h post-induction vs induction); higher = less antimicrobial activity (less host growth inhibition)). Conditions: time post-induction: 4.5 h; library: site-saturation at positions 5, 18, 19, 20.
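Also: peptides expressed intracellularly from a pBAD plasmid library in pooled LB shake-flask culture, induced with 0.3% L-arabinose, DNA abundance read by NGS, three biological replicates, DESeq2 with apeglm shrinkage.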

Row | Sequence | shrunken log2 fold change
1 | RRIRYRPPRLPRPRPRPTPMPRP | 0.843
2 | RRIRFRPPRLPRPRPRPLAFPRP | -0.134
3 | RRIRYRPPRLPRPRPRPYKMPRP | -0.277
4 | RRIRTRPPRLPRPRPRPPICPRP | 0.0623
5 | RRIRMRPPRLPRPRPRPMLWPRP | 0.19
6 | RRIRARPPRLPRPRPRPYRCPRP | -0.174
7 | RRIRKRPPRLPRPRPRPVDEPRP | 0.358
8 | RRIRWRPPRLPRPRPRPYMSPRP | -0.212
9 | RRIRNRPPRLPRPRPRPMPFPRP | 0.00489
10 | RRIRQRPPRLPRPRPRPGKGPRP | 0.00842
11 | RRIRNRPPRLPRPRPRPFKWPRP | -0.224
12 | RRIRRRPPRLPRPRPRPQHYPRP | -0.128
13 | RRIRFRPPRLPRPRPRPAGPPRP | 0.118
14 | RRIRMRPPRLPRPRPRPEWSPRP | 0.721
15 | RRIRYRPPRLPRPRPRPHSDPRP | -0.0292
16 | RRIRARPPRLPRPRPRPDDVPRP | 0.0875
17 | RRIRERPPRLPRPRPRPSDNPRP | -1.25
18 | RRIRCRPPRLPRPRPRPCISPRP | -0.582
19 | RRIRLRPPRLPRPRPRPNLFPRP | -0.0622
20 | RRIRSRPPRLPRPRPRPICLPRP | 0.259
21 | RRIRPRPPRLPRPRPRPAVYPRP | -0.0879
22 | RRIRIRPPRLPRPRPRPYLSPRP | -0.0357
23 | RRIRHRPPRLPRPRPRPQLMPRP | -0.351
24 | RRIRMRPPRLPRPRPRPLGTPRP | 1.31
25 | RRIRSRPPRLPRPRPRPAIDPRP | -0.0382

Row | Sequence | shrunken log2 fold change
26 | RRIRTRPPRLPRPRPRPRFYPRP | -0.367
27 | RRIRARPPRLPRPRPRPLDNPRP | 0.151
28 | RRIRERPPRLPRPRPRPHQNPRP | 0.0506
29 | RRIRTRPPRLPRPRPRPPECPRP | 0.0838
30 | RRIRNRPPRLPRPRPRPPYMPRP | -1.13
31 | RRIRCRPPRLPRPRPRPGKRPRP | 0.244
32 | RRIRPRPPRLPRPRPRPKNMPRP | -0.436
33 | RRIRSRPPRLPRPRPRPIHTPRP | -0.112
34 | RRIRDRPPRLPRPRPRPTWWPRP | 0.433
35 | RRIRSRPPRLPRPRPRPPGEPRP | 0.756
36 | RRIRHRPPRLPRPRPRPPKEPRP | 0.121
37 | RRIRVRPPRLPRPRPRPFISPRP | -0.11
38 | RRIRFRPPRLPRPRPRPPPRPRP | 1.84
39 | RRIRPRPPRLPRPRPRPFDPPRP | -0.0325
40 | RRIRYRPPRLPRPRPRPHIYPRP | -0.725
41 | RRIRDRPPRLPRPRPRPNPLPRP | 1.05
42 | RRIRPRPPRLPRPRPRPDMTPRP | -0.293
43 | RRIRYRPPRLPRPRPRPSQWPRP | -0.162
44 | RRIRSRPPRLPRPRPRPQTRPRP | 0.181
45 | RRIRQRPPRLPRPRPRPAIKPRP | -0.316
46 | RRIRCRPPRLPRPRPRPEYIPRP | -0.144
47 | RRIRWRPPRLPRPRPRPPDRPRP | 0.166
48 | RRIRFRPPRLPRPRPRPHFPPRP | -0.212
49 | RRIRDRPPRLPRPRPRPCYFPRP | -0.31
50 | RRIRGRPPRLPRPRPRPMNQPRP | 0.0945

Row | Sequence | shrunken log2 fold change
51 | RRIRDRPPRLPRPRPRPHCLPRP | 0.12
52 | RRIRCRPPRLPRPRPRPDYGPRP | 2.76
53 | RRIRIRPPRLPRPRPRPFMRPRP | 0.0516
54 | RRIRYRPPRLPRPRPRPSSLPRP | -0.0385
55 | RRIRLRPPRLPRPRPRPEPWPRP | 0.222
56 | RRIRLRPPRLPRPRPRPWAAPRP | 0.15
57 | RRIRCRPPRLPRPRPRPVKCPRP | -0.432
58 | RRIRERPPRLPRPRPRPSYMPRP | -0.0864
59 | RRIRHRPPRLPRPRPRPKWPPRP | 0.0116
60 | RRIRHRPPRLPRPRPRPMAFPRP | 0.166
61 | RRIRPRPPRLPRPRPRPKKMPRP | 2.39
62 | RRIRPRPPRLPRPRPRPADTPRP | 0.221
63 | RRIRVRPPRLPRPRPRPVHEPRP | -0.104
64 | RRIRFRPPRLPRPRPRPAIHPRP | -0.478
65 | RRIRDRPPRLPRPRPRPLHHPRP | -0.314
66 | RRIRWRPPRLPRPRPRPAMYPRP | -0.112
67 | RRIRWRPPRLPRPRPRPCIVPRP | 0.0112
68 | RRIRDRPPRLPRPRPRPWSAPRP | -0.347
69 | RRIRHRPPRLPRPRPRPERPPRP | -0.0369
70 | RRIRERPPRLPRPRPRPYIMPRP | -0.542
71 | RRIRVRPPRLPRPRPRPHMDPRP | -0.449
72 | RRIRMRPPRLPRPRPRPGSSPRP | 0.198
73 | RRIRPRPPRLPRPRPRPPVEPRP | 0.0793
74 | RRIRTRPPRLPRPRPRPPNSPRP | 0.0134
75 | RRIRPRPPRLPRPRPRPLYVPRP | -0.433

Row | Sequence | shrunken log2 fold change
76 | RRIRLRPPRLPRPRPRPHKCPRP | -0.0456
77 | RRIRERPPRLPRPRPRPDNHPRP | -0.802
78 | RRIRPRPPRLPRPRPRPQGGPRP | 0.332
79 | RRIRARPPRLPRPRPRPSWPPRP | 0.164
80 | RRIRDRPPRLPRPRPRPVTPPRP | 0.214
81 | RRIRRRPPRLPRPRPRPQHPPRP | 0.526
82 | RRIRLRPPRLPRPRPRPDMQPRP | -0.0583
83 | RRIRNRPPRLPRPRPRPDRVPRP | -0.275
84 | RRIRCRPPRLPRPRPRPLRTPRP | 1.01
85 | RRIRMRPPRLPRPRPRPSMTPRP | 2.18
86 | RRIRERPPRLPRPRPRPPLVPRP | -0.0197
87 | RRIRCRPPRLPRPRPRPHTKPRP | -0.309
88 | RRIRKRPPRLPRPRPRPFVMPRP | 0.261
89 | RRIRQRPPRLPRPRPRPNPYPRP | -0.0811
90 | RRIRDRPPRLPRPRPRPNGGPRP | -0.0647
91 | RRIRYRPPRLPRPRPRPDGFPRP | -0.418
92 | RRIRARPPRLPRPRPRPRTWPRP | 0.669
93 | RRIRGRPPRLPRPRPRPDCHPRP | 0.217
94 | RRIRSRPPRLPRPRPRPPVMPRP | 0.0439
95 | RRIRNRPPRLPRPRPRPASMPRP | -0.064
96 | RRIRHRPPRLPRPRPRPYNCPRP | -0.00726
97 | RRIRWRPPRLPRPRPRPTKHPRP | -0.118
98 | RRIRQRPPRLPRPRPRPFTDPRP | 0.0299
99 | RRIRQRPPRLPRPRPRPLVAPRP | 0.034
100 | RRIRDRPPRLPRPRPRPFCYPRP | 0.0322

Row | Sequence | shrunken log2 fold change
101 | RRIRTRPPRLPRPRPRPSCGPRP | -0.0561
102 | RRIRKRPPRLPRPRPRPFMLPRP | -0.0682
103 | RRIRRRPPRLPRPRPRPGKFPRP | 0.284
104 | RRIRPRPPRLPRPRPRPDGCPRP | -0.228
105 | RRIRLRPPRLPRPRPRPYWMPRP | -0.257
106 | RRIRVRPPRLPRPRPRPSPCPRP | -0.145
107 | RRIRHRPPRLPRPRPRPNLSPRP | 0.28
108 | RRIRERPPRLPRPRPRPYSQPRP | -0.443
109 | RRIRVRPPRLPRPRPRPYFCPRP | -0.483
110 | RRIRRRPPRLPRPRPRPQTVPRP | -0.0201
111 | RRIRKRPPRLPRPRPRPHTSPRP | -0.469
112 | RRIRARPPRLPRPRPRPSKCPRP | -0.0295
113 | RRIRWRPPRLPRPRPRPKLPPRP | 0.247
114 | RRIRRRPPRLPRPRPRPRVDPRP | 0.00278
115 | RRIRGRPPRLPRPRPRPSYSPRP | -0.0047
116 | RRIRWRPPRLPRPRPRPKRYPRP | 0.0352
117 | RRIRTRPPRLPRPRPRPRFPPRP | 0.115
118 | RRIRIRPPRLPRPRPRPKPVPRP | 0.101
119 | RRIRDRPPRLPRPRPRPQCNPRP | -0.0196
120 | RRIRWRPPRLPRPRPRPSFIPRP | -0.545
121 | RRIRYRPPRLPRPRPRPNCTPRP | -0.126
122 | RRIRYRPPRLPRPRPRPVGLPRP | 0.158
123 | RRIRNRPPRLPRPRPRPFMGPRP | -0.168
124 | RRIRIRPPRLPRPRPRPESPPRP | -0.135
125 | RRIRLRPPRLPRPRPRPWGPPRP | -0.24

Row | Sequence | shrunken log2 fold change
126 | RRIRMRPPRLPRPRPRPQLSPRP | -0.102
127 | RRIRNRPPRLPRPRPRPFVEPRP | -0.12
128 | RRIRSRPPRLPRPRPRPHQDPRP | -0.117
129 | RRIRERPPRLPRPRPRPVEWPRP | -0.00804
130 | RRIRTRPPRLPRPRPRPWSTPRP | -0.14
131 | RRIRLRPPRLPRPRPRPIFFPRP | 0.103
132 | RRIRRRPPRLPRPRPRPERNPRP | -0.085
133 | RRIRLRPPRLPRPRPRPWGVPRP | 0.0612
134 | RRIRGRPPRLPRPRPRPCTLPRP | 0.321
135 | RRIRNRPPRLPRPRPRPASIPRP | -0.0365
136 | RRIRPRPPRLPRPRPRPDIRPRP | -0.0755
137 | RRIRDRPPRLPRPRPRPAYWPRP | -0.0729
138 | RRIRGRPPRLPRPRPRPKTVPRP | 0.662
139 | RRIRERPPRLPRPRPRPKHTPRP | -0.127
140 | RRIRDRPPRLPRPRPRPEPPPRP | 1.06
141 | RRIRYRPPRLPRPRPRPELQPRP | 0.0344
142 | RRIRSRPPRLPRPRPRPHWMPRP | 0.0168
143 | RRIRPRPPRLPRPRPRPESLPRP | -0.0197
144 | RRIRKRPPRLPRPRPRPHPMPRP | 0.224
145 | RRIRGRPPRLPRPRPRPIVAPRP | 0.727
146 | RRIRSRPPRLPRPRPRPHQCPRP | -0.325
147 | RRIRLRPPRLPRPRPRPWRNPRP | 0.00408
148 | RRIRFRPPRLPRPRPRPPQIPRP | 0.241
149 | RRIRPRPPRLPRPRPRPTGWPRP | 0.519
150 | RRIRFRPPRLPRPRPRPMVDPRP | -0.304
